# Laboratory results published in patent US20170355733A1.
# Positions count from the first letter of the chain named. In names and notes the source's numbering stands.
# B1: GB1#-Cont.1d (designed binder)
# chain: GPLGSTTYKLILNGKTLTGYTTAIAADAATAEIVLKQFANDNGIDGEWTYDDATKTFTVTE
# B2: GB1#-D36V.1d (designed binder)
# chain: B1 chain with D41V
# B3: GB1#-T17A.1d (designed binder)
# chain: B1 chain with T22A
# B4: GB1#-T17V.1d (designed binder)
# chain: B1 chain with T22V
# How the values were obtained:
# [1] = biological target: aTNF-Fab (Fab fragment of anti-human TNFα monoclonal IgG, generic name Infliximab, product name Remicade); experiment: affinity chromatography on aTNF-Fab-immobilized column, linear pH gradient 5.5 to 2.5, pH at elution peak top
# [2] = biological target: aTNF-Fab (Fab fragment of anti-human TNFα monoclonal IgG, generic name Infliximab, product name Remicade); experiment: SPR Biacore 3000, aTNF-Fab amine-coupled on CM5, peptide flowed, 25 °C, pH 7.4, 1:1 fit
# [3] = biological target: aTNF-Fab (Fab fragment of anti-human TNFα monoclonal IgG, generic name Infliximab, product name Remicade); experiment: affinity constant KA for aTNF-Fab, summing up Table 2 (method not shown in the excerpt)
Binder,Dissociation pH [1],Ka [2],koff [2],kon [2],Ka [3]
B1,2.6 pH,2.45e+06 M⁻¹,0.017 s⁻¹,41700 M⁻¹ s⁻¹,
B2,3.4 pH,510000 M⁻¹,0.064 s⁻¹,32800 M⁻¹ s⁻¹,> 500000 M⁻¹
B3,2.85 pH,880000 M⁻¹,0.0285 s⁻¹,25000 M⁻¹ s⁻¹,> 500000 M⁻¹
B4,3 pH,570000 M⁻¹,0.0335 s⁻¹,19100 M⁻¹ s⁻¹,> 500000 M⁻¹
